Laboratory results as given in paper PMC6765112, “Specificity of MYB interactions relies on motifs in ordered and disordered contexts” (Nucleic Acids Research, 2019).
Where a chain is given by its changes, count along the chain named. Names and notes keep the numbering of the source. Ends that are not written are not given here.

B1: MYB29 non-MYB region (G120-I336): non-MYB region of MYB29 (G120-I336) (protein)
chain: GIDPVTHKPLAYDSNPDEQSQSGSISPKSLPPSSSKNVPEITSSDETPKYDASLSSKKRCFKRSSSTSKLLNKVAARASSMGTILGASIEGTLISSTPLSSCLNDDFSETSQFQMEEFDPFYQSSEHIIDHMKEDISINNSEYDFSQFLEQFSNNEGEEADNTGGGYNQDLLMSDVSSTSVDEDEMMQNITGWSNYLLDHSDFNYDTSQDYDDKNFI
modifications: left off: NubG and FRB (from the vector pFRB), end not stated, kept
B2: MYB113: MYB TF from subgroup 6 (protein)
chain: MGESPKGLRKGTWTTEEDILLRQCIDKYGEGKWHRVPLRTGLNRCRKSCRLRWLNYLKPSIKRGKLCSDEVDLVLRLHKLLGNRWSLIAGRLPGRTANDVKNYWNTHLSKKHDERCCKTKMINKNITSHPTSSAQKIDVLKPRPRSFSDKNSCNDVNILPKVDVVPLHLGLNNNYVCESSITCNKDEQKDKLININLLDGDNMWWESLLEADVLGPEATETAKGVTLPLDFEQIWARFDEETLELN
modifications: left off: NubG and FRB (from the vector pFRB), end not stated, kept
B3: MYB21: MYB TF from subgroup 19 (protein)
chain: MEKRGGGSSGGSGSSAEAEVRKGPWTMEEDLILINYIANHGDGVWNSLAKSAGLKRTGKSCRLRWLNYLRPDVRRGNITPEEQLIIMELHAKWGNRWSKIAKHLPGRTDNEIKNFWRTRIQKYIKQSDVTTTSSVGSHHSSEINDQAASTSSHNVFCTQDQAMETYSPTPTSYQHTNMEFNYGNYSAAAVTATVDYPVPMTVDDQTGENYWGMDDIWSSMHLLNGN
modifications: left off: NubG and FRB (from the vector pFRB), end not stated, kept
B4: MYB51: MYB TF from subgroup 12, containing a MIM (protein)
chain: MVRTPCCKAELGLKKGAWTPEEDQKLLSYLNRHGEGGWRTLPEKAGLKRCGKSCRLRWANYLRPDIKRGEFTEDEERSIISLHALHGNKWSAIARGLPGRTDNEIKNYWNTHIKKRLIKKGIDPVTHKGITSGTDKSENLPEKQNVNLTTSDHDLDNDKAKKNNKNFGLSSASFLNKVANRFGKRINQSVLSEIIGSGGPLASTSHTTNTTTTSVSVDSESVKSTSSSFAPTSNLLCHGTVATTPVSSNFDVDGNVNLTCSSSTFSDSSVNNPLMYCDNFVGNNNVDDEDTIGFSTFLNDEDFMMLEESCVENTAFMKELTRFLHEDENDVVDVTPVYERQDLFDEIDNYFG
modifications: left off: NubG and FRB (from the vector pFRB), end not stated, kept
notes: MYB TF from subgroup 12, containing a MIM
B5: MYB29 DBD (residues M1-H126): DBD of MYB29 (residues M1-H126) (protein)
chain: MSRKPCCVGEGLKKGAWTAEEDKKLISYIHEHGEGGWRDIPQKAGLKRCGKSCRLRWANYLKPDIKRGEFSYEEEQIIIMLHASRGNKWSVIARHLPKRTDNEIKNYWNTHLKKLLIDKGIDPVTH
modifications: left off: NubG and FRB (from the vector pFRB), end not stated, kept
B6: MYB29 mut: MYB29 with mutations to abolish the MIM: L190K, K192N and A194Y (protein)
chain: MSRKPCCVGEGLKKGAWTAEEDKKLISYIHEHGEGGWRDIPQKAGLKRCGKSCRLRWANYLKPDIKRGEFSYEEEQIIIMLHASRGNKWSVIARHLPKRTDNEIKNYWNTHLKKLLIDKGIDPVTHKPLAYDSNPDEQSQSGSISPKSLPPSSSKNVPEITSSDETPKYDASLSSKKRCFKRSSSTSKLKNNVYARASSMGTILGASIEGTLISSTPLSSCLNDDFSETSQFQMEEFDPFYQSSEHIIDHMKEDISINNSEYDFSQFLEQFSNNEGEEADNTGGGYNQDLLMSDVSSTSVDEDEMMQNITGWSNYLLDHSDFNYDTSQDYDDKNFI
modifications: left off: NubG and FRB (from the vector pFRB), end not stated, kept
notes: MYB29 with mutations to abolish the MIM: L190K, K192N and A194Y
B7: L190F: mutated MYB29 (AAs 120-222); MIM sequence - S TS KL FNK VA ARA SS - (protein)
chain: GIDPVTHKPLAYDSNPDEQSQSGSISPKSLPPSSSKNVPEITSSDETPKYDASLSSKKRCFKRSSSTSKLFNKVAARASSMGTILGASIEGTLISSTPLSSCL
modifications: left off: NubG and FRB (from the vector pFRB), end not stated, kept
B8: N191Q: mutated MYB29 (AAs 120-222); MIM sequence - S TS KL LQK VA ARA SS - (protein)
chain: B7 chain with F71L, N72Q
modifications: left off: NubG and FRB (from the vector pFRB), end not stated, kept
B9: N191L: mutated MYB29 (AAs 120-222); MIM sequence - S TS KL LLK VA ARA SS - (protein)
chain: B7 chain with F71L, N72L
modifications: left off: NubG and FRB (from the vector pFRB), end not stated, kept
B10: MYB47: R2R3 MYB TF containing 165LLNKLA170 (protein)
chain: MGRTTWFDVDGMKKGEWTAEEDQKLGAYINEHGVCDWRSLPKRAGLQRCGKSCRLRWLNYLKPGIRRGKFTPQEEEEIIQLHAVLGNRWAAMAKKMQNRTDNDIKNHWNSCLKKRLSRKGIDPMTHEPIIKHLTVNTTNADCGNSSTTTSPSTTESSPSSGSSRLLNKLAAGISSRQHSLDRIKYILSNSIIESSDQAKEEEEKEEEEEERDSMMGQKIDGSEGEDIQIWGEEEVRRLMEIDAMDMYEMTSYDAVMYESSHILDHLF
modifications: left off: NubG and FRB (from the vector pFRB), end not stated, kept
notes: R2R3 MYB TF containing 165LLNKLA170

How the values were obtained:
MYC4 = experiment: Split-ubiquitin assay, MYC4 as bait; type: cell-based, Arabidopsis thaliana; settings: yeast, SD-AHLW growth
Procedure: (§1) The rapamycin-compatible yeast strain NMY51 TOR1-1 Δfpr1 ([35]) was transformed according to DUALhunter™ kit instructions (Dualsystems biotech). Briefly, overnight 2×YPAD cultures were diluted to OD600 = 0.2, and incubated at 30°C, 150 RPM for 4–6 h in 2×YPAD, before harvesting the cells by centrifugation at 700 g for 5 min. The cells were washed with H2O, then 0.1 M LiOAc, before resuspending in 0.1 M LiOAc with 15% glycerol. The competent cells were then aliquoted and stored at −80°C until transformation. For double transformation with bait and prey plasmids, competent cells were thawed on ice, and mixed with transformation mix (240 μl 50% PEG-3350, 35 μl 1 M LiOAc and 25 μl 2 mg/ml ssDNA per transformation) and 200 ng of each plasmid, before being exposed to a 42°C heat shock in a water bath for 45 min. The cells were then chilled on ice for a few minutes, sedimented by centrifugation (3000 g, 1 min), resuspended in sterile H2O, plated on SD-LW plates and grown at 30°C for 2–3 days.
(§2) For drop tests, cells from three individual colonies of each bait/prey combination were grown overnight in liquid SD-LW media. Next day, culture densities were normalized to OD600 = 0.05, dilution series (OD600 = 0.05, OD600 = 0.005, OD600 = 0.0005 and OD600 = 0.00005) were spotted on square plates (SD-LW, SD-AHLW and SD-AHLW+Rapa) and grown for 2 days at 30°C before taking pictures.
(§3) To identify interaction sites mediating specific MYB–MYC complex formation, we selected two TFs from each family. These were MYB28 and MYB29 from MYB subgroup 12, and two of their partner bHLH TFs, MYC3 and MYC4. To define the region mediating the interactions we applied a chemically inducible dimerization split-ubiquitin system ([35]). […] This is used as an in-built positive control for correct expression and functionality of the prey fusion protein and thereby reduces the incidence of false negatives.

MYC3 = experiment: Split-ubiquitin assay, MYC3 as bait; type: cell-based, Arabidopsis thaliana; settings: yeast, SD-AHLW growth
Procedure: as §1, §2, §3

Row | Molecule | interaction with MYC4 (in words) (MYC4) | interaction with MYC3 (in words) (MYC3)
1 | MYB32: MYB TF from subgroup 4 | did not | did not
2 | MYB29 (S175-L222): 47-residue fragment of MYB29 (S175-L222) (SKKRCFKRSSSTSKLLNKVAARASSMGTILGASIEGTLISSTPLSSCL; not fully specified; cysteine pairing not given here) | sufficient for the interaction | –
3 | B1 | mediated by the non-MYB region | –
4 | B2 | did not | did not
5 | B3 | not able to reproduce the interaction | not able to reproduce the interaction
6 | B4 | interacted with both MYC3 and MYC4 | interacted with both MYC3 and MYC4
7 | B5 | neither sufficient, nor necessary for the interaction | –
8 | B6 | abolished interaction with MYC3 and MYC4 | abolished interaction with MYC3 and MYC4
9 | B7 | weakly interacting | –
10 | B8 | weakly interacting | –
11 | B9 | weakly interacting | –
12 | B10 | we could confirm those interactions | we could confirm those interactions
